Assay results from the supplement of paper PMC9732359.
± gives the uncertainty stated by the source.

Assay: protein stability index of a GFP-peptide fusion (yeast GPS) (PSI 1-4); higher = more stable; sorted into four equal gates, so the index is relative within each strain
How it was run: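 Tiled 17-residue yeast protein peptides were fused downstream of GFP in a plasmid that also expresses Cherry, and the pooled library was carried in yeast. Mid-log cultures in leucine-free medium were sorted into four equal gates by GFP/Cherry fluorescence ratio, and plasmids from each gate were PCR-amplified and Illumina-sequenced, with reads assigned to strains by barcodes. The protein stability index for each peptide was each gate's read frequency times its gate number, summed.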

Row | Sequence | protein stability index (doa10∆) | protein stability index (san1∆) | protein stability index (ubr1∆) | protein stability index (pdr5∆)
1 | PYAVLSQFYELRDREDW [YJR042W/NUP85] | 2.16 ± 0.16 | 2.31 ± 0.21 | 2.71 ± 0.18 | –
2 | GMLAMASLHSKELTRIP [MED4] | 2.18 ± 0.14 | 2.27 ± 0.2 | 1.88 ± 0.19 | 2.37 ± 0.12
3 | LVHDGLARGLRESTKAL [RPS12] | 3.41 ± 0.091 | 3.19 ± 0.17 | 2.83 ± 0.17 | 3.52 ± 0.15
4 | GIFGMDFYVVMNRPGAR [RPL11A] | 1.8 ± 0.057 | 2.49 ± 0.058 | 2.24 ± 0.047 | 1.71 ± 0.064
5 | ARAAKIAPRPLDLLRPV [RPL13B] | 2.81 ± 0.07 | 3.07 ± 0.056 | 2.41 ± 0.043 | 3.04 ± 0.064
6 | NTNTENENRNTGAGVDV [SNF11] | 2.9 ± 0.062 | 2.66 ± 0.044 | 2.88 ± 0.044 | 2.98 ± 0.045
7 | LGPGIYCDPNTQEIRPV [RRP40] | 2.62 ± 0.057 | 2.53 ± 0.057 | 2.59 ± 0.058 | 2.78 ± 0.051
8 | LNSTLESLYDLIEFQPS [MED6] | 2.8 ± 0.049 | 2.88 ± 0.039 | 2.76 ± 0.048 | 2.85 ± 0.046
9 | EFISIYSNSHQMAVHIA [RET1] | 3.25 ± 0.11 | 3.04 ± 0.11 | 3.11 ± 0.087 | 3.45 ± 0.19
10 | GEPEAGNKALEDEEEFS [RPC34] | 3.18 ± 0.13 | – | – | 3.26 ± 0.26
11 | TVLESLGRLNKLRKIAI [LIN1] | 2.66 ± 0.057 | 2.66 ± 0.058 | 2.95 ± 0.035 | 2.69 ± 0.049
12 | FDVMIDEESLVKYMPEQ [RPO21] | 2.3 ± 0.15 | 1.86 ± 0.26 | 2.13 ± 0.058 | 2.04 ± 0.16
13 | HYGQTLGKKKNVKEEET [RPS8A] | 2.62 ± 0.035 | 2.38 ± 0.033 | 2.879 ± 0.026 | 2.84 ± 0.035
14 | EGTSISVHLIECYKQLF [YCS4] | 3.46 ± 0.14 | 3.42 ± 0.14 | 3.3 ± 0.063 | 3.39 ± 0.12
15 | TPNMVNSEISNLPKDKS [SSN2] | 2.74 ± 0.08 | 2.69 ± 0.087 | 2.9 ± 0.066 | 3.08 ± 0.17
16 | TCPGLSLTDVAFFTYDA [ECM29] | 3.36 ± 0.14 | 2.78 ± 0.072 | 3.11 ± 0.099 | 3.05 ± 0.091
17 | NKLGALKTNFETEWNLQ [RPB11] | 2.68 ± 0.064 | 3.22 ± 0.12 | 2.95 ± 0.091 | 2.9 ± 0.077
18 | TYVLNTWTNSKIFIKDP [YML103C/NUP188] | 2 ± 0.056 | 2.3 ± 0.058 | 2.23 ± 0.034 | 2.15 ± 0.046
19 | NFIIWINSIDTTESSDL [GRR1] | 2.46 ± 0.044 | 2.61 ± 0.055 | 2.88 ± 0.037 | 2.38 ± 0.047
20 | ITQIVEKDFCTSCLQNN [SRB8] | 2.35 ± 0.065 | 2.68 ± 0.081 | 2.28 ± 0.049 | 2.71 ± 0.077
21 | FLGALKYLPHAILKLLE [PRP8] | 2.12 ± 0.09 | 2.55 ± 0.085 | 2.16 ± 0.039 | 1.82 ± 0.061
22 | LVNRKPIPFEFQAVIQK [SNF2] | 2.65 ± 0.079 | 2.71 ± 0.048 | 2.83 ± 0.038 | 2.73 ± 0.057
23 | DDENEPKRKRRLPVSED [YOR098C/NUP1] | 3.34 ± 0.1 | 3.09 ± 0.087 | 3.06 ± 0.072 | 3.28 ± 0.14
24 | DMAILERYYELAFDKLN [ARP7] | 1.3 ± 0.09 | 1.31 ± 0.16 | 1.54 ± 0.18 | 1.6 ± 0.1
25 | SNSALFRAVGEGNAQLV [FAS1] | 2.15 ± 0.11 | 2.27 ± 0.096 | 1.94 ± 0.09 | 2.37 ± 0.11
26 | LLENPNCFFDVIVPQIV [DIS3] | 3.23 ± 0.13 | 2.99 ± 0.065 | 2.36 ± 0.095 | 3.12 ± 0.12
